Assay results as given in patent publication US20040258656, “High affinity TGFbeta nucleic acid ligands and inhibitors” (published 2004).

Assays:
[1] = biological target: T1, TGFβ2 (transforming growth factor beta 2) (Homo sapiens, UniProt P61812 SEQ:1-112); test: filter; settings: chain copies: 2 (inferred, homodimer)
T1 sequence: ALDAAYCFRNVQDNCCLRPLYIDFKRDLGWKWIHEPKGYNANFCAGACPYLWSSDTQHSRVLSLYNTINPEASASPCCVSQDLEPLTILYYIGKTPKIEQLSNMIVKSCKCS

[2] = biological target: T1, TGFβ2 (transforming growth factor beta …); test: filter; settings: chain copies: 2 (homodimer, stated)
[3] = biological target: T1, TGFβ2 (transforming growth factor beta …); test: filter; settings: chain copies: 2 (inferred, homodimer); remark: listed apart in the source
[4] = biological target: T2, TGFβ1 (transforming growth factor beta 1) (Homo sapiens, UniProt P01137 SEQ:1-112); test: bioactivity +++; settings: chain copies: 2 (inferred, homodimer)
[5] = biological target: T2, TGFβ1 (transforming growth factor beta …); test: CD70 parent +++; settings: chain copies: 2 (homodimer, inferred)
[6] = biological target: T1, TGFβ2 (transforming growth factor beta …); test: filter; settings: chain copies: 2 (inferred, homodimer); remark: listed apart in the source
[7] = biological target: T1, TGFβ2 (transforming growth factor beta …); test: filter; settings: chain copies: 2 (inferred, homodimer); remark: listed apart in the source

T2 sequence (P01137 279-390): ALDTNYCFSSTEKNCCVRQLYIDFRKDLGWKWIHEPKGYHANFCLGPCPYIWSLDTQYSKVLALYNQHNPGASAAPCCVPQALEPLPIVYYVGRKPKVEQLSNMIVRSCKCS

B1: 21a-4(ML-111) (ssRNA)
RNA: GGGGAGCGGCGUUGUUUAGUCGUAUGUAUAUACUAAGU
modifications: 2'-F C and U
binding signal [1]: 30 x Kd of 21a-4

B2: 8.5 (ssRNA)
RNA: GGGAGGACGAUGCGGUCCUAACCAUCACAAUCUCAAUUCUUAUAUUUUCCCGCCCCAGACGACUCGCCCGA
modifications: 2'-F C and U; 2'-OH A and G
binding result [2]: no binding

B3: 14i-1t5-38 (ssRNA)
RNA: GGGAGGAUGCGGAAGUAACGUUGUAGUAAAAUUCC
modifications: 2'-F C and U
binding signal [3]: > 100 x Kd of 14i-1

B4: 14i-1t5-41 (ssRNA)
RNA: GGGAGGAUGCGGAAGUAACGUUGUAGUAAAAUUCCUUC
modifications: 2'-F C and U
binding signal [3]: 1 x Kd of 14i-1

B5: 21a-4(ML-108) (ssRNA)
RNA: GGGGAGCGGCGUUGUUUCGUAUGUAUAUAAGUCCGCUU
modifications: 2'-F C and U
binding signal [1]: > 100 x Kd of 21a-4

B6: 21a-4(ML-92) (ssRNA)
RNA: GGGGAGCGGCGUUGUUGAAAAGUCCGCUU
modifications: 2'-F C and U
binding signal [1]: > 100 x Kd of 21a-4

B7: CD70 (ChD70) (ssRNA)
RNA: GGGUGCCUUUUGCCUAGGUUGUGAUUUGUAACCUUCUGCCCA
modifications: 2'-F pyrimidines (library chemistry)
binding result [4]: binds

B8: ChD70-m7 (ssRNA)
RNA: GGGUGCCUUUUGCCUAGGUUGUGAUUUGUAACCUUCUGCCCA
modifications: 2'-OMe at 3, 21, 23-24, 28
binding result [5]: binds

B9: ChD70-m5 (ssRNA)
RNA: GGGUGCCUUUUGCCUAGGUUGUGAUUUGUAACCUUCUGCCCA
modifications: 2'-OMe at 1, 21, 23-24, 28
binding result [5]: binds

B10: ChD70-m10 (ssRNA)
RNA: GGGUGCCUUUUGCCUAGGUUGUGAUUUGUAACCUUCUGCCCA
modifications: 2'-OMe at 16, 21, 23-24, 28
binding result [5]: binds

B11: ChD70-m12 (ssRNA)
RNA: GGGUGCCUUUUGCCUAGGUUGUGAUUUGUAACCUUCUGCCCA
modifications: 2'-OMe at 18, 21, 23-24, 28
binding result [5]: binds

B12: ChD70-m3 (ssRNA)
RNA: GGGUGCCUUUUGCCUAGGUUGUGAUUUGUAACCUUCUGCCCA
modifications: 2'-OMe at 21, 23-24, 28
binding result [5]: binds

B13: ChD70-m14 (ssRNA)
RNA: GGGUGCCUUUUGCCUAGGUUGUGAUUUGUAACCUUCUGCCCA
modifications: 2'-OMe at 21, 23-24, 28, 31
binding result [5]: binds

B14: ChD70-m17 (ssRNA)
RNA: GGGUGCCUUUUGCCUAGGUUGUGAUUUGUAACCUUCUGCCCA
modifications: 2'-OMe purines at 1-3, 16-18, 21, 23-24, 28, 30-31 and 42; 3'-3' U
binding result [4]: binds

B15: ChD70-m18 (ssRNA)
RNA: GGGUGCCUUUUGCCUAGGUUGUGAUUUGUAACCUUCUGCCCA
modifications: 2'-OMe at 1-3, 16-18, 21, 23-24, 28, 30, 42; 3'-3' U cap
binding result [5]: binds

B16: ChD70-m11 (ssRNA)
RNA: GGGUGCCUUUUGCCUAGGUUGUGAUUUGUAACCUUCUGCCCA
modifications: 2'-OMe at 17, 21, 23-24, 28
binding result [5]: binds

B17: ChD70-m15 (ssRNA)
RNA: GGGUGCCUUUUGCCUAGGUUGUGAUUUGUAACCUUCUGCCCA
modifications: 2'-OMe at 21, 23-24, 28, 38
binding result [5]: binds

B18: ChD70-m6 (ssRNA)
RNA: GGGUGCCUUUUGCCUAGGUUGUGAUUUGUAACCUUCUGCCCA
modifications: 2'-OMe at 2, 21, 23-24, 28
binding result [5]: binds

B19: ChD70-m16 (ssRNA)
RNA: GGGUGCCUUUUGCCUAGGUUGUGAUUUGUAACCUUCUGCCCA
modifications: 2'-OMe at 21, 23-24, 28, 42
binding result [5]: binds

B20: 14i-1(ML-87) (ssRNA)
RNA: GGGAGGAUGCGGAAGUAACGUUGUAGU
modifications: 2'-F C and U
binding signal [3]: > 100 x Kd of 14i-1

B21: NX22427 (ssRNA)
RNA: GGGGUUAUUACAGAGUCUGUAUAGCUGUACCC
modifications: 2'-F C and U; 2'-OMe at lowercase a,g of gg-ggUUAUUaCagagUCUGUAUAgCUgUaC-CC; 3'-3' dT
binding signal [6]: 0.3 x Kd of NX22284

B22: 8.20 (ssRNA)
RNA: GGGAGGACGAUGCGGUCUCAACGAAGAACAUCGUUGGAUACUGUUUGUCCCGCCCCAGACGACUCGCCCGA
modifications: 2'-F C and U; 2'-OH A and G
binding result [2]: no binding

B23: 8.6 (ssRNA)
RNA: GGGAGGACGAUGCGGAAACCAAAAGACCACAUCUCCAUACUCACGCUCUGCCCCAGACGACUCGCCCGA
modifications: 2'-F C and U; 2'-OH A and G
binding result [2]: no binding

B24: 8.18 (ssRNA)
RNA: GGGAGGACGAUGCGGUCUACCCUUUAGCAGUAUUUGUUUCCAUCGUUGUUUGCCCCAGACGACUCGCCCGG
modifications: 2'-F C and U; 2'-OH A and G
binding result [2]: no binding

B25: 14i-1(ML-86) (ssRNA)
RNA: GGGAGGAUGCGGAAGUAACGUUGUAGUUCCUUC
modifications: 2'-F C and U
binding signal [3]: > 100 x Kd of 14i-1

B26: 8.8 (ssRNA)
RNA: GGGAGGACGAUGCGGAUAGAUCGGUCCGAUAAGUCUUUCAUCUUUACCUGGCCCCCAGACGACUCGCCCGA
modifications: 2'-F C and U; 2'-OH A and G
binding result [2]: no binding

B27: 8.12 (ssRNA)
RNA: GGGAGGACGAUGCGGUCCAUCAACAAUCUUAUCAUUAUGUUUUUCCUUCCCGCCCCAGACGACUCGCCCGA
modifications: 2'-F C and U; 2'-OH A and G
binding result [2]: no binding

B28: 21a-4(ML-109) (ssRNA)
RNA: GGGGAGCGGCGUUGUUUAUGUAUAAGUCCGCUU
modifications: 2'-F C and U
binding signal [1]: > 100 x Kd of 21a-4

B29: NX22426 (ssRNA)
RNA: GGAGAUAUUACAGAGUCUGUAUAGCUGUACUCC
modifications: 2'-F C and U; 2'-OMe at lowercase a,g of ggaga-UAUUaCagagUCUgUAUAgCUgUaCucc with G of CUGUAUA 2'-OH; 3'-3' dT
binding signal [6]: 1 x Kd of NX22284

B30: 21a-4(ML-91) (ssRNA)
RNA: GGGGAGCGGCGUUGUUUAGUCGUAUGUAUAUACUAAGUCCGCUU
modifications: 2'-F C and U
binding signal [1]: 1 x Kd of 21a-4

B31: NX22385 (ssRNA)
RNA: UGUGAAUAUUAGAGAGUCUGUAUAGCUCUACCCC
modifications: 2'-F C and U; 3'-3' dT
binding signal [7]: 0.4 x Kd of NX22284

B32: NX22425 (ssRNA)
RNA: UGUGAAUAUUAGAGAGUCUGUAUAGCUCUACCCC
modifications: 2'-F C and U; 2'-OMe at lowercase a,g of UgUgaaUAUUagagagUCUGUAUAgCUCUaCCCC; 3'-3' dT
binding signal [7]: 1.5 x Kd of NX22284

B33: NX22424 (ssRNA)
RNA: UGUGAAUAUUAGAGAGUCUGUAUAGCUCUACCCC
modifications: 2'-F C and U; 2'-OMe at lowercase a,g of UgUgAAUAUUaGagagUCUGUAUAgCUCUaCCCC; 3'-3' dT
binding signal [7]: 0.6 x Kd of NX22284

B34: 21a-4(ML-110) (ssRNA)
RNA: GGGGAGCGGCGUUGUUUAGUCGUAUGUAUAUACUAAGUCCGC
modifications: 2'-F C and U
binding signal [1]: 1 x Kd of 21a-4

B35: 14i-1Δ5',3' (ssRNA)
RNA: GGAAGUAACGUUGUAGUAAAAUUCGUUCUCUCGGCAUUUGGCCA
modifications: 2'-F C and U
binding signal [3]: > 100 x Kd of 14i-1

B36: 21a-4Δ5',3' (ssRNA)
RNA: GGCGUUGUUUAGUCGUAUGUAUAUACUAAGUCCGCUUGUCCCCA
modifications: 2'-F C and U
binding signal [1]: > 100 x Kd of 21a-4

B37: NX22356 (ssRNA)
RNA: GGAGGUUAUUACAGAGUCUGUAUAGCUGUACUCC
modifications: 2'-F C and U; 2'-OMe at lowercase a,g of ggagGUUAUUACAGAGUCUGUAUAGCuGUACUCC; 3'-3' dT
binding signal [6]: 1 x Kd of NX22284

B38: NX22360 (ssRNA)
RNA: GGAGGUUAUUACAGAGUCUGUAUAGCUGUACUCC
modifications: 2'-F C and U; 2'-OMe at lowercase a,g of GGAGGUUAUUACAGAGUCUGUAUAgCUgUaCUCC; 3'-3' dT
binding signal [6]: 1 x Kd of NX22284

B39: NX22421 (ssRNA)
RNA: GGAGGUUAUUACAGAGUCUGUAUAGCUGUACUCC
modifications: 2'-F C and U; 2'-OMe at all purines except G5, A8, A11, G20, A22, A24; 3'-3' dT
binding signal [6]: 2 x Kd of NX22284

B40: NX22357 (ssRNA)
RNA: GGAGGUUAUUACAGAGUCUGUAUAGCUGUACUCC
modifications: 2'-F C and U; 2'-OMe at lowercase a,g of GGAGgUUaUUaCAGAGUCUGUAUAGCUGUACUCC; 3'-3' dT
binding signal [6]: 2 x Kd of NX22284

B41: NX22377 (ssRNA)
RNA: GGAGGUUAUUACAGAGUCUGUAUAGCUGUACUCC
modifications: 2'-F C and U; 2'-OMe at lowercase a,g of ggaggUUaUUaCAGAGUCUGUAUAgCUgUaCucc; 3'-3' dT
binding signal [6]: 1 x Kd of NX22284

B42: NX22417 (ssRNA)
RNA: GGAGGUUAUUACAGAGUCUGUAUAGCUGUACUCC
modifications: 2'-F C and U; 2'-OMe at all purines except G20, A22, A24; 3'-3' dT
binding signal [6]: 1 x Kd of NX22284

B43: NX22420 (ssRNA)
RNA: GGAGGUUAUUACAGAGUCUGUAUAGCUGUACUCC
modifications: 2'-F C and U; 2'-OMe at all purines except A8, G20, A22, A24; 3'-3' dT
binding signal [6]: 1 x Kd of NX22284

B44: NX22358 (ssRNA)
RNA: GGAGGUUAUUACAGAGUCUGUAUAGCUGUACUCC
modifications: 2'-F C and U; 2'-OMe at lowercase a,g of GGAGGUUAUUACagagUCUGUAUAGCUGUACUCC; 3'-3' dT
binding signal [6]: 1 x Kd of NX22284

B45: 14i-1t5-35 (ssRNA)
RNA: GGGAGGAUGCGGAAGUAACGUUGUAGUAAAAU
modifications: 2'-F C and U
binding signal [3]: > 100 x Kd of 14i-1

B46: 14i-1(ML-89) (ssRNA)
RNA: GGGAGGAGUAACGUUGUAGU
modifications: 2'-F C and U
binding signal [3]: > 100 x Kd of 14i-1
